These are literature values, as cited in article PMC4546937.

In general, Kd refers to the equilibrium constant for the complex coming apart.

For the series, the target named is IL-13Ralpha1 (Homo sapiens) (UniProt P78552).
Sequence of UniProt P78552 (P78552 22-343): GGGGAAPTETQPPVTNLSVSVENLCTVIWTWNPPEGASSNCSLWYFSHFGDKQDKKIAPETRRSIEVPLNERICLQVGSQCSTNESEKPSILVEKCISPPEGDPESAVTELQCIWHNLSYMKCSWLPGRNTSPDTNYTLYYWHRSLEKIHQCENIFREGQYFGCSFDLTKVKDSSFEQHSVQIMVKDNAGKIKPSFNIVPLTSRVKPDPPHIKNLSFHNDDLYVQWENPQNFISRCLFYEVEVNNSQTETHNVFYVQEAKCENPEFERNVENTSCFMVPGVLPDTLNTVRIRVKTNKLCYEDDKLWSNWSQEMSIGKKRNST

Consider IL-13 (from UniProt P35225), for which the Kd was 30 nM.
